Experimental data taken from patent publication US12497460B2, “Anti-MSR1 antibodies and methods of use thereof” (REGENERON PHARMACEUTICALS, INC., priority 2018, dated 2025).

Experiments:
[1] = target: T1, His9-hMSR1 (human MSR1 extracellular domain) (Homo sapiens, UniProt P21757); assay: Biacore T200 surface plasmon resonance binding kinetics of anti-MSR1 antibody-drug conjugates and parental antibodies; details: 25° C.; for kd: * = no dissociation observed, kd manually fixed at 1.00E−05
T1 construct: human MSR1 extracellular domain expressed with a N-terminal nonahistidine tag; His9 (nonahistidine) (N); purchased R&D Systems 2708-MS
T1 sequence (P21757 77-451 limits assumed): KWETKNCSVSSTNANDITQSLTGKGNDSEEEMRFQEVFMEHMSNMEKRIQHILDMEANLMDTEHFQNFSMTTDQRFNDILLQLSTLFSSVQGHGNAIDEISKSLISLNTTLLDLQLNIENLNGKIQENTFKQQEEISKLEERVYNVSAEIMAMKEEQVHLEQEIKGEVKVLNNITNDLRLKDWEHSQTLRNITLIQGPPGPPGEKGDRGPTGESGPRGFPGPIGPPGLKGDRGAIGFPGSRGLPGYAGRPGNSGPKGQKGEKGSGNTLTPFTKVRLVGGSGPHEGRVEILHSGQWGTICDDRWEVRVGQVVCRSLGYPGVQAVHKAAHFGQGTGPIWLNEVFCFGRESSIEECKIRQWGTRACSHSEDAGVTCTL
Protocol: The MSR1 antibodies disclosed herein were conjugated to various liver X receptor (LXR) payloads or various steroid payloads. This example describes how equilibrium dissociation constant (KD) values for human MSR1 reagents binding to human anti-MSR1 antibody-drug conjugates and their corresponding unconjugated parental antibodies were determined using a real-time surface plasmon resonance-based Biacore T200 biosensor.
All binding studies were performed in 10 mM HEPES, 300 mM NaCl, 3 mM EDTA, and 0.05% v/v Surfactant Tween-20, pH 7.4 (HBS-ET) running buffer at 25° C. The Biacore CM4 sensor chip surface was first derivatized by amine coupling with the goat anti-human Fcγ specific polyclonal antibody (Jackson ImmunoResearch Laboratories, Cat #BR-1008-39) to capture anti-MSR1 monoclonal antibodies. Binding studies were performed on human MSR1 extracellular domain expressed with a N-terminal nonahistidine tag (His9-hMSR1; R&D Systems, Cat #2708-MS).
The association rate (ka) and dissociation rate (kd) were determined by fitting the real-time binding sensorgrams to a 1:1 binding model with mass transport limitation using Scrubber 2.0c curve-fitting software. Binding dissociation equilibrium constant (KD) and dissociative half-life (t½) were calculated from the kinetic rates as: […]
Binding kinetics parameters for His9-hMSR1 binding to different anti-MSR1 antibody-LXR ADCs and their unconjugated parental antibodies at 25° C. are shown in Table 19. “LP1” represents a linker-payload for which the payload structure is provided in Example 11.
The binding studies were repeated with anti-MSR1 antibody H1H21234-N297Q and steroid linker payloads (LPs). “LP3” represents a linker-payload for which the structure is provided in Example 23, and “LP13” represents a linker-payload for which the structure is provided in Example 24.

LXR (THP1/LXR-Luc cells) = assay: LXR-luciferase reporter bioassay (Example 31); assay type: cell-based, human; details: 48 hours; for EC50: differentiated THP1/LXR-Luc cells; for S/N: signal to noise, ratio of RLU of standard one over standard eight
Description: Generation of assay cell line. To test the efficacy of anti-MSR1 antibody-LXR conjugates in vitro, a cell-based LXR responsive luciferase reporter assay was developed. To generate the assay cell line, a LXR regulated luciferase reporter gene [Cignal Lenti LXR Reporter (luc) kit (Qiagen, Cat #CLS-001 L)] was transduced into THP1 cells, and cells were selected for two weeks in puromycin. The lentivirus expresses the firefly luciferase gene under the control of a minimal CMV promoter and tandem repeats of the LXR transcriptional response element. The resulting cell line is referred to as THP1/LXR-Luc cells.
Assay protocol. THP1/LXR-Luc cells were seeded onto 96 well plates at 40,000 cells/well in media containing RPMI supplemented with 10% FBS and pencillin/streptomycin and subsequently differentiated with 200 nM Phorbol Myristate Acetate (PMA) for 3 days. After the 3-day differentiation period, three-fold serial dilutions of antibody drug conjugates, unconjugated antibodies, or free payloads in fresh media were added to the cells at final concentration ranging from 100 nM to 0.01 nM. Media alone served as a blank control. Forty-eight hours later, luciferase activity was determined after the addition of One-Glo™ reagent (Promega, Cat #E6130) to each well. Relative light units (RLUs) were measured on a Victor luminometer (PerkinElmer) and EC50 values were determined using a four-parameter logistic equation over a 10-point dose response curve (GraphPad Prism). The signal to noise (S/N) was determined by calculating the ratio of RLU of standard one over RLU of standard eight for each of the unconjugated anti-MSR1 antibodies or free payloads. “LP #” represents a linker-payload for which the corresponding structures are provided elsewhere herein, and “P #” represents a payload for which the corresponding structures are provided elsewhere herein.

[2] = Table 19, antibody-LXR ADCs and unconjugated antibodies

B1: H1H27731P-N297Q-LP1 (conjugate)
VH: QLQLQESGPGLVKPSETLSLTCTVSGGSISRISYYWGWIRQPPGKGLEWIGSIYDSGSTYYNPSLKSRVTISIDTSKNQFSLKLSSVTAADTAVYYCVRYSSSSAFAFDYWGQGTLVTVSS
VL: DIQMTQSPSSVSASVGDRVTITCRASQGISSWLAWYQQKPGKAPKLLIYAASSLQSGVPSRFSGSGSGTDFTLTISSLQPEDFATYYCQQANSFPFTFGPGTKVDIKR
For B1, the ka [1, 2] was 128000 M⁻¹ s⁻¹, the kd ([1]; Table 19) was 1.00E−05* s^−1 and the EC50 (LXR (THP1/LXR-Luc cells)) was 1.46 nM. For the same molecule, the S/N (LXR (THP1/LXR-Luc cells)) was 15.5.

B2: H1H27754P-N297Q-LP1 (conjugate)
VH: EVQLVESGGGLVQPGGSLRLSCAASGFTFRTYAMTWVRQAPGKGLDWVSAITGDGGNTYYADSVKGRFTISRDNSKNTLYLQMNSLRAEDTAIYYCAKDQRFSFALYYFDYWGQGTLVTVSS
VL: DIQMTQSPSSVSASVGDRVTITCRASQGISSWLAWYQQKPGNAPKLLIYAAFSLQSGVPSRFSGSGSGTDFTLTISSLQPEDFATYYCQQANNFPWTFGQGTKVEIKR
For B2, the ka [1, 2] was 177000 M⁻¹ s⁻¹, the kd ([1]; Table 19) was 1.00E−05* s^−1 and the EC50 (LXR (THP1/LXR-Luc cells)) was 1.3 nM. For the same molecule, the S/N (LXR (THP1/LXR-Luc cells)) was 17.3.

B3: H1H27747P-N297Q-LP1 (conjugate)
VH: QVQLVESGGAVVQPGRSLRLSCAASGFTFSYYGMHWVRQAPGKGLEWVAVISYDGSKKYYADSVKGRFTISRDNSKNTLYLQMNSLRAEDTAVYYCAKDLTVDFYYGMDVWGQGTTVTVSS
VL: DIQMTQSPSSVSASVGDRVTITCRASQGISSWLAWYQQKPGKAPKLLIYATSSLQSGAPSRFSGSGSGTDFTLTISSLQPEDFATYFCQQANSFPYTFGQGTKLEIKR
In the case of B3, the ka [1, 2] is reported as 136000 M⁻¹ s⁻¹, the kd ([1]; Table 19) is reported as 0.000203 s⁻¹ and the EC50 (LXR (THP1/LXR-Luc cells)) is reported as 4.77 nM. The S/N (LXR (THP1/LXR-Luc cells)) was 20.6.

B4: H1H27739P-N297Q-LP1 (conjugate)
VH: EVQLVESGGGLVQPGGSLRLSCTASGFTFSSYAMSWVRQAPGKGLEWVSAISGTGSSTYFTDSVKGRFAISRDNSKNTLYLQMNSLRAEDTAVYYCAKDGEWLSTVTLFDYWGQGTLVTVSS
VL: EIVMTQSPATLSVSPGERATLSCRASQSVSSNLAWYQQKPGQAPRLLIYGASTRATGIPARFSGSGSGTDFTLTISSLQSEDFALYYCQQYFIWPPHPTFGPGTKVDIKR
Molecule B4 has a ka [1, 2] of 88800 M⁻¹ s⁻¹, a kd ([1]; Table 19) of 0.000722 s⁻¹ and an EC50 (LXR (THP1/LXR-Luc cells)) of 1.6 nM. It also gave a S/N (LXR (THP1/LXR-Luc cells)) of 21.0.

B5: H1H27729P-N297Q-LP1 (conjugate)
VH: QVQLVESGGGLVKPGGSLRLSCAASGFIFSDYYMSWIRQAPGKGLEWVSYISSSGTTIYGDSVKGRFTMSRDNAKNSLYLQMNSLRAEDTAVYYCARNYALFDYWGQGTLVTVSS
VL: DIQMTQSPSSLSASVGDRVTITCQASQDISKYLNWYQQKPGKAPKLLIYYTSNLETGVPSRFSGSGSGTDFTFTISSLQPEDIATYYCHQSDYLPFTFGPGTKVDIKR
For B5, the ka [1, 2] was 54700 M⁻¹ s⁻¹, the kd ([1]; Table 19) was 0.000718 s⁻¹ and the EC50 (LXR (THP1/LXR-Luc cells)) was 1.64 nM. The S/N (LXR (THP1/LXR-Luc cells)) was 14.5.

B6: H1H27734P-N297Q-LP1 (conjugate)
VH: EVQLVESRGGLVQPGGSLRLSCAASGFTFSSYAMSWVRQAPGKGLEWVSAISGSGGSTFYADSVKGRFTISRDNSKNTVYLQMNSLRAEDTAVYYCAKALVLRFLEWLGDYWGQGTLVTVSS
VL: DIQMTQSPSTLSASVGDRVTITCRASQSISSWLAWFQQKPGKAPKLLIYKASSLESGVPSRFSGSGSGTEFTLTISSLQPDDFATYYCQQYKSYWTFGQGTKVEIKR
B6 showed a ka [1, 2] of 69300 M⁻¹ s⁻¹, a kd ([1]; Table 19) of 0.000449 s⁻¹ and an EC50 (LXR (THP1/LXR-Luc cells)) of 5.19 nM. It also gave a S/N (LXR (THP1/LXR-Luc cells)) of 17.8.

B7: H1H21234N-N297Q-LP3 (conjugate)
VH: QVQLQESGPGLVKPSETLSLTCTVTGGSISRNYWSWIRQPPGKGLEWIGYIYYSGSIDYNPSLKSRVTISVDTSKNQFSLKLSSMTAADTAVYYCARDRWNWKYGMDVWGQGTTVIVSS
VL: EIVLTQSPGTLSLSPGERATLSCRASQTVRNNYLAWYHQKPGQAPRLLIYGASSRATGIPDRFSGSGSGTDFTLTISRLEPEDFTVYYCHQYGNSPWTFGQGTKMEIKR
With B7 the ka ([1]; Table 20, antibody-steroid ADCs and unconjugated antibody) was 417000 M⁻¹ s⁻¹ and the kd ([1]; Table 20) was 1e-05 s⁻¹.
